# B1: T. canadensis GGPP synthase Tr^295 truncated protein (enzyme)
# chain: FDFNEYMKSKAVAVDAALDKAIPLEYPEKIHESMRYSLLAGGKRVRPALCIAACELVGGSQDLAMPTACAMEMIHTMSLIHDDLPCMDNDDFRRGKPTNHKVFGEDTAVLAGDALLSFAFEHIAVATSKTVPSDRTLRVISELGKTIGSQGLVGGQVVDITSEGDANVDLKTLEWIHIHKTAVLLECSVVSGGILGGATEDEIARIRRYARCVGLLFQVVDDILDVTKSSEELGKTAGKDLLTDKATYPKLMGLEKAKEFAAELATRAKEELSSFDQIKAAPLLGLADYIAFRQN
# Target: the molecule itself
# Assay: gel permeation chromatography on calibrated Superdex G-75 (about 60,000 against the predicted monomer of 32.1 kDa) with SDS-PAGE; self-association (homodimer)
# Description: After centrifugation as above, the cell pellet was resuspended in 80 ml of ice cold 50 mM Tris (pH 7.6) containing 10% (v/v) glycerol, 10 mM MgCl_2, 5 mM DTT, and 1 μg/ml leupeptin (extraction/assay buffer). All subsequent operations were conducted at 0–4° C. Cells were disrupted with 150 ml glass beads using a Biospec Bead-Beater operated at 90 V for 5 min, and the resulting debris was removed by centrifugation at 3000 g for 20 min to yield a supernatant that was further clarified by centrifugation at 31,000 g for 20 min. The resulting supernatant was used as the enzyme source.
protein,measurement,value
B1,binding result,binds
